According to patent US20230190950A1, “COMPOSITIONS AND METHODS FOR THE TREATMENT OF BACTERIAL INFECTIONS” (Cidara Therapeutics, Inc., priority 2017, published 2023):

How the values were obtained:
[1] = tested on: Escherichia coli BW25113 + pUC18-mcr-1; assay: MIC assay (broth microdilution), Ec BW (mcr-1); format: cell-based; conditions: assay media RPMI A
Excerpt: An mcr-1 expression plasmid was constructed (GenScript; Piscataway, N.J.) using the pUC18 high copy number plasmid (Yanisch-Perron, et al., 1985). A 1649-bp fragment was synthesized containing, in order from 5′ to 3′: EcoR1 restriction site (5′-GAATTC-3′), a ribosomal binding site (5′-AGGAGG-3′), a 5-bp native start codon upstream sequence (5′-TTCTC-3′) from the mcr-1-bearing plasmid pHNSHP45 (Liu, Y Y, et al., 2015; GenBank Accession #KP347127), the 1626-bp mcr-1 open reading frame with stop codon (“orf00073” of GenBank Accession #KP347127), and finally an Xba1 restriction site sequence (5′-TCTAGA-3′). […] The pUC18-mcr-1 plasmid was transformed into chemically-competent E. coli BW25113 (Coli Genetic Stock Center #7636) as described previously (Chung, et al., PNAS. 1989), recovered for 1 h shaking at 37° C. in Super Optimal broth with Catabolite repression (SOC) media and then aliquots were plated on Luria-Bertani (LB) media containing 100 μg/mL of carbenicillin. Putative transformant colonies were then verified in MIC assays.
(§1) Bacterial strains were stored as glycerol stocks at −80° C. prior to culturing on cation-adjusted Mueller-Hinton agar (MHA; BD cat. no. 211438) at 37° C. Antibacterial activity was assessed against a panel consisting of Escherichia coli, Acinetobacter baumannii, Pseudomonas aeruginosa, and Klebsiella pneumoniae strains (see Table 2).
Briefly, stock solutions of all antibacterial agents were prepared fresh in appropriate solvents (i.e. PBS, pH 7.4, DMSO, DI, etc.). Stock concentrations were made at 50× the highest final assay concentration and serially diluted 2-fold, 8 or 12 times in a 96-well PCR plate (VWR cat. no. 83007-374). Bacterial cell suspensions generated from MHA plate cultures were prepared in 0.85% saline and adjusted to ˜0.1 OD600 nm. […] Later, conjugates 16 and 17, and 20-25 were evaluated in RPMI 1640 medium (+) L-glutamine, (+) sodium bicarbonate, pH 7.4 (“RPMI B”; Gibco, cat. no. 11875-085) as has been described as a more physiologically-relevant media for susceptibility testing of antibacterial compounds. […]

[2] = tested on: Escherichia coli ATCC BAA-2469; assay: MIC assay (broth microdilution), Ec 2469; format: cell-based; conditions: assay media RPMI A
Experimental: as §1
(§2) Briefly, stock solutions of all antibacterial agents were prepared fresh in appropriate solvents (i.e. PBS, pH 7.4, DMSO, DI, etc.). Stock concentrations were made at 50× the highest final assay concentration and serially diluted 2-fold, 8 or 12 times in a 96-well PCR plate (VWR cat. no. 83007-374). Bacterial cell suspensions generated from MHA plate cultures were prepared in 0.85% saline and adjusted to ˜0.1 OD600 nm. […] Dorschner R A et al., The mammalian ionic environment dictates microbial susceptibility to antimicrobial defense peptides. FASEB J. 20(1):35-42 (2017). Ninety-eight microliters of each cell suspension in MHB were added to test wells in a 96-well assay plate (Costar cat. no. 3370). A Beckman Multimek 96 liquid handling robot was used to dispense 2 μL of each 50× stock compound into the plate containing 98 μL of each strain in MHB (2% final solvent concentration). E. coli strains BW25113 and ATCC 25922 were run in the presence and absence of 50% heat-inactivated fetal bovine serum (FBS; Sigma, cat. no. F4135-100 mL). Plates were mixed by shaking then incubated at 37° C. overnight (16-20 h).

[3] = tested on: Acinetobacter baumannii ABS075-UW; assay: MIC assay (broth microdilution), Ab ABS075; format: cell-based; conditions: assay media RPMI A
Experimental: as §1, §2

[4] = tested on: Escherichia coli ATCC 25922; assay: MIC assay (broth microdilution), Ec 25922; format: cell-based; conditions: assay media RPMI A; for MIC, Ec 25922 + FBS: 50% heat-inactivated FBS
Experimental: as §1, §2

Escherichia coli BW25113 = assay: MIC assay (broth microdilution), Ec BW; format: cell-based; conditions: assay media RPMI A; for MIC, Ec BW + FBS: 50% heat-inactivated FBS
Experimental: as §1, §2

[5] = tested on: Pseudomonas aeruginosa PAO1; assay: MIC assay (broth microdilution), Pa PAO1; format: cell-based; conditions: assay media RPMI A
Experimental: as §1
(§3) Briefly, stock solutions of all antibacterial agents were prepared fresh in appropriate solvents (i.e. PBS, pH 7.4, DMSO, DI, etc.). Stock concentrations were made at 50× the highest final assay concentration and serially diluted 2-fold, 8 or 12 times in a 96-well PCR plate (VWR cat. no. 83007-374). Bacterial cell suspensions generated from MHA plate cultures were prepared in 0.85% saline and adjusted to ˜0.1 OD600 nm. Next, cell suspensions were diluted 1:200 in RPMI containing 5% Luria Broth (LB) to improve bacterial growth (BD Difco, cat. no. 244620) to a concentration of ˜5×10^5 CFU (colony-forming units)/mL. […] Later, conjugates 16 and 17, and 20-25 were evaluated in RPMI 1640 medium (+) L-glutamine, (+) sodium bicarbonate, pH 7.4 (“RPMI B”; Gibco, cat. no. 11875-085) as has been described as a more physiologically-relevant media for susceptibility testing of antibacterial compounds. Dorschner R A et al., The mammalian ionic environment dictates microbial susceptibility to antimicrobial defense peptides. FASEB J. 20(1):35-42 (2017). Ninety-eight microliters of each cell suspension in MHB were added to test wells in a 96-well assay plate (Costar cat. no. 3370). A Beckman Multimek 96 liquid handling robot was used to dispense 2 μL of each 50× stock compound into the plate containing 98 μL of each strain in MHB (2% final solvent concentration). E. coli strains BW25113 and ATCC 25922 were run in the presence and absence of 50% heat-inactivated fetal bovine serum (FBS; Sigma, cat. no. F4135-100 mL). Plates were mixed by shaking then incubated at 37° C. overnight (16-20 h).

recombinant mouse FcRn = molecular target: T1, recombinant mouse FcRn (Mus musculus, UniProt Q61559); assay: Binding of conjugates to FcRn (ELISA), mouse; conditions: pH 6.25; 20 μg/mL starting concentration, 2-fold diluted
T1 construct: purchased R&D 6775-FC-050
T1 sequence (Q61559 22-297 limits assumed): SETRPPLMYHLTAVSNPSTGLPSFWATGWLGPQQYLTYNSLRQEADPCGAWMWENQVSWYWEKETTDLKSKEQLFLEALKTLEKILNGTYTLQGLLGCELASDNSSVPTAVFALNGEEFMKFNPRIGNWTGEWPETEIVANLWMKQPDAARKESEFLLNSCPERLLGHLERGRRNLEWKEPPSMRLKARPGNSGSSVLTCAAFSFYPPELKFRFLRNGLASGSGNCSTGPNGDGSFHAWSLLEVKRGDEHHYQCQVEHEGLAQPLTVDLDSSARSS
T1 sequence (P01887 21-119 partner): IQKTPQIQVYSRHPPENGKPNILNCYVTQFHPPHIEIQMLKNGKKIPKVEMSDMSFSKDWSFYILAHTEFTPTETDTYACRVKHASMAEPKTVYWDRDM
Experimental: 96-well ELISA plates (Fisher, Cat. No. 12-565-136) were coated with 0.25 μg/well of recombinant mouse FcRn (R&D, Cat. No. 6775-FC-050) or recombinant human FcRn (R&D, Cat. No. 8639-FC-050) in carbonate-bicarbonate buffer (Sigma, Cat. No. C34041) at pH 6.25 overnight at 37° C. A pH of 6.25 was maintained during the complete experiment. Blocking was carried out with 5% skim milk in PBS with 0.05% Tween 20. Purified conjugates were added at 20 μg/mL starting concentration and serially 2-fold diluted in blocking buffer. For detection, HRP-labeled secondary anti-mouse IgG-HRP (GE Healthcare, Cat. No. NA931V) or anti-human IgG-HRP (GE Healthcare, Cat. No. NA933V) was used to detect the bound conjugates. Absorbance was measured at 450 nm with a 96-well microplate reader and data were analyzed using GraphPad Prism software, FIGS. 33A-33F.

[6] = tested on: Acinetobacter baumannii ATCC 19606; assay: MIC assay (broth microdilution), Ab 19606; format: cell-based; conditions: assay media RPMI A
Experimental: as §1, §2

[7] = tested on: Escherichia coli BW25113 4X-12 (COL-R); assay: MIC assay (broth microdilution), Ec BW 4X-12 (COL-R); format: cell-based; conditions: assay media RPMI A
Experimental: as §1, §3

[8] = tested on: Pseudomonas aeruginosa ATCC 27853; assay: MIC assay (broth microdilution), Pa 27853; format: cell-based; conditions: assay media RPMI A
Experimental: as §1
(§4) Briefly, stock solutions of all antibacterial agents were prepared fresh in appropriate solvents (i.e. PBS, pH 7.4, DMSO, DI, etc.). Stock concentrations were made at 50× the highest final assay concentration and serially diluted 2-fold, 8 or 12 times in a 96-well PCR plate (VWR cat. no. 83007-374). Bacterial cell suspensions generated from MHA plate cultures were prepared in 0.85% saline and adjusted to ˜0.1 OD600 nm. Next, cell suspensions were diluted 1:200 in RPMI containing 5% Luria Broth (LB) to improve bacterial growth (BD Difco, cat. no. 244620) to a concentration of ˜5×10^5 CFU (colony-forming units)/mL. […] Later, conjugates 16 and 17, and 20-25 were evaluated in RPMI 1640 medium (+) L-glutamine, (+) sodium bicarbonate, pH 7.4 (“RPMI B”; Gibco, cat. no. 11875-085) as has been described as a more physiologically-relevant media for susceptibility testing of antibacterial compounds. Dorschner R A et al., The mammalian ionic environment dictates microbial susceptibility to antimicrobial defense peptides. FASEB J. 20(1):35-42 (2017). […]

[9] = tested on: Acinetobacter baumannii ATCC 179778; assay: MIC assay (broth microdilution), Ab 17978; format: cell-based; conditions: assay media RPMI A
Experimental: as §1, §4

B1: Conjugate 4 (conjugate)
chain: PRGPTIKPCPPCKCPAPNLLGGPSVFIFPPKIKDVLMISLSPIVTCVVVDVSEDDPDVQISWFVNNVEVHTAQTQTHREDYNSTLRVVSALPIQHQDWMSGKEFKCKVNNKDLPAPIERTISKPKGSVRAPQVYVLPPPEEEMTKKQVTLTCMVTDFMPEDIYVEWTNNGKTELNYKNTEPVLDSDGSYFMYSKLRVEKKNWVERNSYSCSVVHEGLHNHHTTKSFSRTPGKHHHHHH
modifications: cyclised or stapled
- MIC, Ec BW (mcr-1) [1]: >128 µg/mL
- MIC, Ec 2469 [2]: >128 µg/mL
- MIC Ab AB5075 [3]: 32 µg/mL
- MIC, Ec 25922 [4]: >128 µg/mL
- MIC, Ec 25922 + FBS [4]: 64 µg/mL
- MIC, Ec BW (Escherichia coli BW25113): 32 µg/mL
- MIC, Ec BW + FBS (Escherichia coli BW25113): 32 µg/mL
- MIC Pa PAO1 [5]: 16 µg/mL
- binding to mouse FcRn (ELISA) (recombinant mouse FcRn): does not interfere with FcRn interaction
- MIC Ab 19606 [6]: 32 µg/mL
- MIC, Ec BW 4X-12 (COL-R) [7]: >128 µg/mL

B2: Conjugate 26: "Conjugate of m-IgG2a(His)6 Fc-3(Int-13)"; mlgG2a(His)6 Fc (SEQ ID NO: 6), reduced hinge disulfides; DAR=2/Fc dimer (conjugate)
chain: PRGPTIKPCPPCKCPAPNLLGGPSVFIFPPKIKDVLMISLSPIVTCVVVDVSEDDPDVQISWFVNNVEVHTAQTQTHREDYNSTLRVVSALPIQHQDWMSGKEFKCKVNNKDLPAPIERTISKPKGSVRAPQVYVLPPPEEEMTKKQVTLTCMVTDFMPEDIYVEWTNNGKTELNYKNTEPVLDSDGSYFMYSKLRVEKKNWVERNSYSCSVVHEGLHNHHTTKSFSRTPGKHHHHHH
modifications: conjugated to Int-13 at hinge cysteines
notes: "Conjugate of m-IgG2a(His)6 Fc-3(Int-13)"; DAR=2/Fc dimer
- MIC, Ec BW (mcr-1) [1]: >128 µg/mL
- MIC, Ec 2469 [2]: 32 µg/mL
- MIC Ab AB5075 [3]: 32 µg/mL
- MIC, Ec 25922 [4]: >128 µg/mL
- MIC, Ec 25922 + FBS [4]: 128 µg/mL
- MIC Pa 27853 [8]: 16 µg/mL
- MIC Ab 17978 [9]: 64 µg/mL
- MIC, Ec BW (Escherichia coli BW25113): 16 µg/mL
- MIC, Ec BW + FBS (Escherichia coli BW25113): 32 µg/mL
- MIC Pa PAO1 [5]: 64 µg/mL
- MIC Ab 19606 [6]: 128 µg/mL
- MIC, Ec BW 4X-12 (COL-R) [7]: >128 µg/mL
